These results are taken from the supplement of paper PMC5998384.

The test system of data set [1] is HeLa Kyoto. Briefly: thermal stability score vs G1/S (z-score of summed log2 fold changes over temperatures); higher = more thermally stable than in G1/S.
Data set [2] concerns HeLa Kyoto. The experiment in a line: melting temperature (median over replicates), in situ; higher = more thermally stable.
For data set [3], the system named is HeLa Kyoto. The experiment in a line: solubility change mitosis vs G1/S (difference of NP-40 vs SDS log2 ratios) (log2 ratio difference); higher = more soluble in mitosis.
Data set [4] has as its system HeLa Kyoto. The experiment in a line: solubility in G1/S (NP-40 vs SDS abundance) (log2 ratio); higher = more soluble. The note with it: cell cycle stage: G1/S.
The mark [5] stands for this setting: cell cycle stage: early G1 (4.5 h after nocodazole release).
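Wherever melting temperature (median over replicates), in situ is given: HeLa Kyoto cells synchronized by double thymidine or nocodazole block, proteins quantified by TMT10plex mass spectrometry, three independent biological replicates.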
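Wherever solubility change mitosis vs G1/S (difference of NP-40 vs SDS log2 ratios) is given: synchronized HeLa Kyoto cells (double thymidine block for G1/S, nocodazole release for mitosis), protein amounts in NP-40 versus SDS lysates quantified by mass spectrometry, three biological replicates.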
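Wherever solubility in G1/S (NP-40 vs SDS abundance) is given: HeLa Kyoto cells arrested at G1/S by double thymidine block, proteins quantified by TMT10plex mass spectrometry in mild NP-40 versus SDS extracts, three biological replicates.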
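Wherever thermal stability score vs G1/S (z-score of summed log2 fold changes over temperatures) is given: synchronized HeLa Kyoto cells, proteins quantified by TMT10plex mass spectrometry, three biological replicates, mitosis taken 0.5 h after nocodazole release, G1/S directly after double thymidine block.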

Consider “MSFIDPYQHIIVEHQYSHKFTVVVLRATKVTKGAFGDMLDTPDPYVELFISTTPDSRKRTRHFNNDINPVWNETFEFILDPNQENVLEITLMDANYVMDETLGTATFTVSSMKVGEKKEVPFIFNQVTEMVLEMSLEVCSCPDLRFSMALCDQEKTFRQQRKEHIRESMKKLLGPKNSEGLHSARDVPVVAILGSGGGFRAMVGFSGVMKALYESGILDCATYVAGLSGSTWYMSTLYSHPDFPEKGPEEINEELMKNVSHNPLLLLTPQKVKRYVESLWKKKSSGQPVTFTDIFGMLIGETLIHNRMNTTLSSLKEKVNTAQCPLPLFTCLHVKPDVSELMFADWVEFSPYEIGMAKYGTFMAPDLFGSKFFMGTVVKKYEENPLHFLMGVWGSAFSILFNRVLGVSGSQSRGSTMEEELENITTKHIVSNDSSDSDDESHEPKGTENEDAGSDYQSDNQASWIHRMIMALVSDSALFNTREGRAGKVHNFMLGLNLNTSYPLSPLSDFATQDSFDDDELDAAVADPDEFERIYEPLDVKSKKIHVVDSGLTFNLPYPLILRPQRGVDLIISFDFSARPSDSSPPFKELLLAEKWAKMNKLPFPKIDPYVFDREGLKECYVFKPKNPDMEKDCPTIIHFVLANINFRKYRAPGVPRETEEEKEIADFDIFDDPESPFSTFNFQYPNQAFKRLHDLMHFNTLNNIDVIKEAMVESIEYRRQNPSRCSVSLSNVEARRFFNKEFLSKPKA [PLA2G4A]”, for which the thermal stability score in data set [1] (setting [5]) was found to be 1.55; in data set [1] (cell cycle stage: mitosis), 0.83. For the same sequence, the melting temperature in data set [2] (cell cycle stage: G1/S) is 50.3 °C; in data set [2] (cell cycle stage: mitosis), 50.1 °C. Moreover, the “solubility change mitosis (log2)” value in data set [3] is -0.0979. The “solubility in G1/S (log2)” value in data set [4] is -0.0367.

“MSFPKAPLKRFNDPSGCAPSPGAYDVKTLEVLKGPVSFQKSQRFKQQKESKQNLNVDKDTTLPASARKVKSSESKESQKNDKDLKILEKEIRVLLQERGAQDRRIQDLETELEKMEARLNAALREKTSLSANNATLEKQLIELTRTNELLKSKFSENGNQKNLRILSLELMKLRNKRETKMRGMMAKQEGMEMKLQVTQRSLEESQGKIAQLEGKLVSIEKEKIDEKSETEKLLEYIEEISCASDQVEKYKLDIAQLEENLKEKNDEILSLKQSLEENIVILSKQVEDLNVKCQLLEKEKEDHVNRNREHNENLNAEMQNLKQKFILEQQEREKLQQKELQIDSLLQQEKELSSSLHQKLCSFQEEMVKEKNLFEEELKQTLDELDKLQQKEEQAERLVKQLEEEAKSRAEELKLLEEKLKGKEAELEKSSAAHTQATLLLQEKYDSMVQSLEDVTAQFESYKALTASEIEDLKLENSSLQEKAAKAGKNAEDVQHQILATESSNQEYVRMLLDLQTKSALKETEIKEITVSFLQKITDLQNQLKQQEEDFRKQLEDEEGRKAEKENTTAELTEEINKWRLLYEELYNKTKPFQLQLDAFEVEKQALLNEHGAAQEQLNKIRDSYAKLLGHQNLKQKIKHVVKLKDENSQLKSEVSKLRCQLAKKKQSETKLQEELNKVLGIKHFDPSKAFHHESKENFALKTPLKEGNTNCYRAPMECQESWK [HMMR]”: the thermal stability score was -0.359 in data set [1] (setting [5]) and -1.33 in data set [1] (cell cycle stage: mitosis). Also, the melting temperature in data set [2] (cell cycle stage: G1/S) is 49.2 °C; in data set [2] (cell cycle stage: mitosis) it was 50.1 °C. Further, in data set [3], the “solubility change mitosis (log2)” value is 0.189. Further, the “solubility in G1/S (log2)” value in data set [4] turned out to be 0.497.

On to “MSFSEMNRRTLAFRGGGLVTASGGGSTNNNAGGEASAWPPQPQPRQPPPPAPPALQPPNGRGADEEVELEGLEPQDLEASAGPAAGAAEEAKELLLPQDAGGPTSLGGGAGGPLLAERNRRTLAFRGGGGGGLGNNGSSRGRPETSVWPLRHFNGRGPATVDLELDALEGKELMQDGASLSDSTEDEEEGASLGDGSGAEGGSCSSSRRSGGDGGDEVEGSGVGAGEGETVQHFPLARPKSLMQKLQCSFQTSWLKDFPWLRYSKDTGLMSCGWCQKTPADGGSVDLPPVGHDELSRGTRNYKKTLLLRHHVSTEHKLHEANAQESEIPSEEGYCDFNSRPNENSYCYQLLRQLNEQRKKGILCDVSIVVSGKIFKAHKNILVAGSRFFKTLYCFSNKESPNQNNTTHLDIAAVQGFSVILDFLYSGNLVLTSQNAIEVMTVASYLQMSEVVQTCRNFIKDALNISIKSEAPESVVVDYNNRKPVNRDGLSSSRDQKIASFWATRNLTNLASNVKIENDGCNVDEGQIENYQMNDSSWVQDGSPEMAENESEGQTKVFIWNNMGSQGIQETGKTRRKNQTTKRFIYNIPPNNETNLEDCSVMQPPVAYPEENTLLIKEEPDLDGALLSGPDGDRNVNANLLAEAGTSQDGGDAGTSHDFKYGLMPGPSNDFKYGLIPGTSNDFKYGLIPGASNDFKYGLLPESWPKQETWENGESSLIMNKLKCPHCSYVAKYRRTLKRHLLIHTGVRSFSCDICGKLFTRREHVKRHSLVHKKDKKYKCMVCKKIFMLAASVGIRHGSRRYGVCVDCADKSQPGGQEGVDQGQDTEFPRDEEYEENEVGEADEELVDDGEDQNDPSRWDESGEVCMSLDD [ZBTB10]”, for which the thermal stability score in data set [1] (setting [5]) was -0.229; in data set [1] (cell cycle stage: mitosis), -0.231. Also, in data set [2] (cell cycle stage: mitosis), the melting temperature was determined as 53.4 °C. In data set [3], the “solubility change mitosis (log2)” value was -0.0451. Besides, in data set [4], the “solubility in G1/S (log2)” value was -0.114.

Take “MSGAALGLEIVFVFFLALFLLHRYGDFKKQHRLVIIGTLLAWYLCFLIVFILPLDVSTTIYNRCKHAAANSSPPENSNITGLYATANPVPSQHPCFKPWSYIPDGIMPIFWRVVYWTSQFLTWILLPFMQSYARSGGFSITGKIKTALIENAIYYGTYLLIFGAFLIYVAVNPHLHLEWNQLQTIGIAAANTWGLFLLVLLLGYGLVEIPRSYWNGAKRGYLLMKTYFKAAKLMTEKADAEENLEDAMEEVRKVNESIKYNHPLRKCVDTILKKCPTEYQEKMGRNMDDYEDFDEKHSIYPSEKSLVKLHKQVIYSVQRHRRTQVQWQILLEQAFYLEDVAKNETSATHQFVHTFQSPEPENRFIQYFYNPTFEWYWECLLRPWFYKILAVVLSIFSVIVVWSECTFFSTTPVLSLFAVFIQLAEKTYNYIYIEIACFLSIFFLSICVYSTVFRIRVFNYYYLASHHQTDAYSLLFSGMLFCRLTPPLCLNFLGLTHMDSSISHKNTQPTAYTSIMGSMKVLSFIADGFYIYYPMLVVILCIATYFSLGTRCLNLLGFQQFMGDDDMTSDLVNEGKELIRKEKRKRQRQEEGENRRREWKERYGHNREDSTRNRNIHTDPKESNFSDVNTNRSAFKYTRANNRTERDRIELLQDAEPLDFNAETFTDDPLESESGRYQPGGRYLSMSRSDIFNDV [LMBRD2]”: the figures for the thermal stability score in data set [1] (setting [5]) and in data set [1] (cell cycle stage: mitosis) were -0.0528 and -1.48, respectively. The results for the melting temperature in data set [2] (cell cycle stage: G1/S) and in data set [2] (cell cycle stage: mitosis) were 55.4 °C and 53.8 °C, respectively. Also, the “solubility change mitosis (log2)” value in data set [3] was -0.00686. Also, in data set [4], the “solubility in G1/S (log2)” value was -0.331.

As to “MSGEENPASKPTPVQDVQGDGRWMSLHHRFVADSKDKEPEVVFIGDSLVQLMHQCEIWRELFSPLHALNFGIGGDGTQHVLWRLENGELEHIRPKIVVVWVGTNNHGHTAEQVTGGIKAIVQLVNERQPQARVVVLGLLPRGQHPNPLREKNRQVNELVRAALAGHPRAHFLDADPGFVHSDGTISHHDMYDYLHLSRLGYTPVCRALHSLLLRLLAQDQGQGAPLLEPAP [PAFAH1B3]”, the thermal stability score in data set [1] (setting [5]) came to 0.482; in data set [1] (cell cycle stage: mitosis) it was 1.01. Further, the melting temperature in data set [2] (cell cycle stage: G1/S) came out at 50.6 °C; in data set [2] (cell cycle stage: mitosis), 51 °C. Also, in data set [3], the “solubility change mitosis (log2)” value was -0.0232. Moreover, the “solubility in G1/S (log2)” value in data set [4] came out at 0.751.

“MSGESARSLGKGSAPPGPVPEGSIRIYSMRFCPFAERTRLVLKAKGIRHEVININLKNKPEWFFKKNPFGLVPVLENSQGQLIYESAITCEYLDEAYPGKKLLPDDPYEKACQKMILELFSKVPSLVGSFIRSQNKEDYAGLKEEFRKEFTKLEEVLTNKKTTFFGGNSISMIDYLIWPWFERLEAMKLNECVDHTPKLKLWMAAMKEDPTVSALLTSEKDWQGFLELYLQNSPEACDYGL [GSTO1]”: the figures for the thermal stability score in data set [1] (setting [5]) and in data set [1] (cell cycle stage: mitosis) were 1.3 and -0.166, respectively. In addition, the results for the melting temperature in data set [2] (cell cycle stage: G1/S) and in data set [2] (cell cycle stage: mitosis) were 53.7 °C and 54.2 °C, respectively. Further, the “solubility change mitosis (log2)” value in data set [3] is -0.0339. Besides, the “solubility in G1/S (log2)” value in data set [4] is 0.508.
